From patent publication US20240294635A1 (CHIA TAI TIANQING PHARMACEUTICAL GROUP, published 2024)
Read-outs that look alike come from different tables or passages of the source.

Legend:
[1] = target: T1, human CD47 protein, His Tag (ACRObiosystems, Cat. No. CD7-H5227) (human, UniProt Q08722 19-139); assay: ELISA, CD47-His coated, competition with Human-SIRPα-mFc
T1 construct: bought reagent; also called CD47-His; hCD47-His Tag; not shown: His tag

[2] = target: T1, human CD47 protein, His Tag …; assay: ELISA, plate coated with CD47-His
Method: (§1) An ELISA binding assay was performed based on human CD47 protein and anti-CD47 chimeric antibodies or anti-CD47 humanized antibodies. […] The wells were aspirated, and non-specific binding sites were blocked by adding 100 L/well of a blocking solution (PBS with 1% (w/v) bovine serum albumin (BSA, Sigma, Cat. No. B2064-100G)) and incubating the plate at 37° C. for 1 h. After the 96-well plate was washed three times with a washing buffer (PBS with 0.01% (w/v) Tween 20 (Sigma, Cat. No. P9416-100ML)), 100 μL/well of 1:4 serial dilutions (from 30 g/mL) of anti-CD47 antibodies (see Table 3 for chimeric antibodies, and see Table 4 for humanized antibodies) in blocking solution were added, and the plate was incubated at room temperature for 2 h. […] After the 96-well plate was washed, 100 μL/well of a substrate solution TMB (TIANGEN, Cat. No. PA107-01) was added, and the 96-well plate was incubated at room temperature for 10 min. 100 μL/well of a stop solution (1 M H₂SO₄) was added to stop the reaction. Colorimetric signals were generated and read at 450 nm using a multifunctional microplate reader (manufacturer: PerkinElmer; model: EnVision). Data were analyzed using GraphPad Prism5, and EC₅₀ was calculated.

CD47 on HL60 cells [3] = target: T2, CD47 on HL60 cells (UniProt Q08722 19-323, limits assumed); assay: cell-based or functional assay
[4] = target: T3, CD47 on the red cell surface (Homo sapiens (Human), UniProt Q08722 19-323); assay: flow cytometry on fixed red cells, antibody 10 µg/mL
Method: (§2) Anticoagulated blood was collected and well mixed with an equal amount of normal saline. The mixture was centrifuged at 2000 rpm/min for 5 min, and the supernatant was removed. […] In the first two washings, the mixture was centrifuged at 2000 rpm/min for 5 min, and in the last washing, the mixture was centrifuged at 2000 rpm/min for 10 min, and the supernatant was removed.

CD47 on Jurkat cells = target: T4, CD47 on Jurkat cells (UniProt Q08722 19-323, limits assumed); assay: flow cytometry on Jurkat cells, competition with Human-SIRPα-mFc
T4 construct: whole, on cells; Jurkat is a human T cell line
Method: The plate was incubated at room temperature for 1 h. After the plate was washed twice with PBS buffer, 100 μL of anti-CD47 chimeric antibodies (Table 7) was added to each well. 4-fold dilution was performed with PBS buffer from a starting concentration of 20 μg/mL, with 8 gradients obtained. The plate was incubated at room temperature for 1-2 h. […] The plate was incubated at room temperature for 1 h and washed 3 times with PBS buffer.

[5] = target: T1, human CD47 protein, His Tag …; assay: Biacore SPR, 25 C, antibody captured on CM5 chip
[6] = target: T5, cynomolgus/rhesus macaque CD47 protein, His Tag (ACRObiosystems, Cat. No. CD7-C52H1) (cynomolgus monkey (cynomolgus/rhesus …, UniProt A0A2K5X523 19-141)); assay: Biacore SPR, 25 C, antibody captured on CM5 chip
T5 construct: bought reagent; also called Cynomolgus monkey CD47 protein
T5 sequence (A0A2K5X523 entry or part of it limits assumed): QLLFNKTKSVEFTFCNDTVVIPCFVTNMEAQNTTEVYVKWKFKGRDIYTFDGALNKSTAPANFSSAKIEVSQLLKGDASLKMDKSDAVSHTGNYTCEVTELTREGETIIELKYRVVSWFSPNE

[7] = target: T6, human CD47 protein on CHO-K1-CD47 cells (human, UniProt Q08722 19-323); assay: cell binding, CHO-K1-CD47 cells, high content imaging
T6 construct: whole, on cells; also called CHO-K1 cells expressing human CD47 protein
Method: (§3) A cell binding assay of anti-CD47 antibodies (chimeric or humanized) was performed based on the binding to a CHO-K1 cell line stably expressing CD47. CHO-K1-CD47 cells (CHO-K1 cells expressing human CD47 protein) were added to each well of a 96-well plate (Eppendorf, Cat. No. C030730.119) at 1.2×10⁴ cells per well and incubated with anti-CD47 antibodies (20 μg/mL, 1:4 dilution in PBS) at room temperature for 1-2 h. […] The cells were incubated at room temperature for 30 min. The cells were washed three times with PBS buffer. A nuclear dye Hoechst (Sigma, Cat. No. B2261) was diluted with PBS buffer at a dilution ratio of 1:500 and then added to each well at 100 μL/well for staining for 10 min. The cells were washed 3 times with PBS and analyzed using a high content screening system (manufacturer: PerkinElmer; model: Operetta).

[8] = target: T3, CD47 on the red cell surface; assay: flow cytometry on fixed red cells, antibody 1 µg/mL
Method: as §2

[9] = target: T3, CD47 on the red cell surface; assay: as above; remark: listed apart in the source
Method: as §2

[10] = target: T1, human CD47 protein, His Tag …; assay: ELISA, plate coated with CD47-His; remark: listed apart in the source
Method: as §1

[11] = target: T6, human CD47 protein on CHO-K1-CD47 cells; assay: cell binding, CHO-K1-CD47 cells, high content imaging; remark: listed apart in the source
Method: as §3

CD47 on HL60 cells [12] = target: T2, CD47 on HL60 cells; assay: cell-based or functional assay; remark: listed apart in the source
[13] = target: T3, CD47 on the red cell surface; assay: flow cytometry on fixed red cells, antibody 10 µg/mL; remark: listed apart in the source
Method: as §2

[14] = target: T3, CD47 on the red cell surface; assay: cell-based or functional assay
[15] = target: T1, human CD47 protein, His Tag …; assay: ELISA, CD47-His coated, competition with Human-SIRPα-mFc; remark: listed apart in the source
Method: The plate was let stand at 2-8° C. overnight. The wells were aspirated to remove the coating buffer and blocked with 100 μL/well of a blocking solution (PBS with 1% (w/v) bovine serum albumin (BSA, Sigma, Cat. No. B2064-100G)) by incubation at 37° C. for 1 h. The 96-well plate was washed with a washing buffer (PBS with 0.01% (w/v) Tween 20 (Sigma, Cat. No. P9416-100ML)). […] After the 96-well plate was washed with PBS washing buffer, anti-CD47 chimeric antibodies or anti-CD47 humanized antibodies (see Table 8 for chimeric antibodies, and see Table 9 for humanized antibodies) were added. 4-fold dilution was performed with PBS buffer from a starting concentration of 20 μg/mL, with 8 gradients obtained. The plate was incubated at room temperature for 1.5 h. […] After the 96-well plate was washed with PBS buffer, 100 μL/well of a substrate solution TMB (TIANGEN, Cat. No. PA107-01) was added, and the plate was incubated at room temperature for color development for 10 min. 100 μL/well of 1 M H₂SO₄ was added to stop the reaction. Colorimetric signals were generated and read at 450 nm using a multifunctional microplate reader (manufacturer: PerkinElmer; model: EnVision). Data were analyzed using GraphPad Prism5, and EC₅₀ was calculated.

[16] = target: T1, human CD47 protein, His Tag …; assay: Biacore SPR, 25 C, antibody captured on CM5 chip; remark: listed apart in the source
[17] = target: T5, cynomolgus/rhesus macaque CD47 protein, …; assay: Biacore SPR, 25 C, antibody captured on CM5 chip; remark: listed apart in the source

Row | Binder | IC50 [1] [mg/L] | EC50 [2] [mg/L] | rate of phagocytosis, antibody 1 µg/mL (CD47 on HL60 cells [3]) [%] | rate of phagocytosis, antibody 10 µg/mL (CD47 on HL60 cells [3]) [%] | MFI [4] [MFI] | IC50 (CD47 on Jurkat cells) [mg/L] | Kd [5] [nM] | Kd [6] [nM] | EC50 [7] [mg/L] | MFI [8] [MFI] | MFI [9] [MFI] | EC50 [10] [mg/L] | EC50 [11] [mg/L] | rate of phagocytosis, antibody 1 µg/mL (CD47 on HL60 cells [12]) [%] | rate of phagocytosis, antibody 10 µg/mL (CD47 on HL60 cells [12]) [%] | MFI [13] [MFI] | red cell agglutination, lowest concentration causing it [14] [µg/mL] | IC50 [15] [mg/L] | Kd [16] [nM] | Kd [17] [nM]
1 | Xi3F10 (antibody, human IgG4 S228P, kappa, V domains shown, mouse variable regions on human IgG4 (EU S228P) and human kappa constant regions; also called chimeric 3F10 antibody) VH: EVQLQQSVAELMKPGASVKIYCKATGYTFSRYWIEWVKQRPGHGLEWIGEFIPGSDTTNFNEKFKGKATFTAEISSNTAYMQLSSLTSEDSAVYFCARGGLRRMDYWGQGTSVTVSS VL: DIVMTQTPAIMSASPGEKVTMTCRASSSVSSTYLHWYQQKSGASPKLWIYTTSTLASGVPARFSGSGSGTSYSLTISSVEAEDAATYYCQQFSDSTWTFGGGTKLEIKR | 7.91 | 1.11 | 65.7 | 59.8 | 61800 | 0.358 | 0.767 | 1.04 | 19.8 | 36100 | – | – | – | – | – | – | – | – | – | –
2 | Xi14A9 (antibody, human IgG4 S228P, kappa, V domains shown, mouse variable regions on human IgG4 (EU S228P) and human kappa constant regions; also called chimeric 14A9 antibody) VH: EVQLQQSGAEVARPGASVKLSCTVSGFNIEDDYIEWVKQRPEQGLEWIGRIDPANDKTKYAPKFQDKATITGDTSSNTAYLQLSSLTSEDTAVYYCTRPGLRRYYSMDYWGQGTSVTVSS VL: NIVLTQSPKSMSMSVGERVTLSCKASENVVSYVSWYQQKPEQSPKLLIYGASNRYTGVPDRFIGSGSSTDFTLIISSFQPEDLADYHCGQSYSYPLTFGAGTKLELKR | 0.444 | 0.273 | 54.2 | 44.7 | 32800 | 1.28 | 2.35 | 1.58 | 0.541 | 26500 | – | – | – | – | – | – | – | – | – | –
3 | Xi16E5 (antibody, human IgG4 S228P, kappa, V domains shown, mouse variable regions on human IgG4 (EU S228P) and human kappa constant regions; also called chimeric 16E5 antibody) VH: EVQLQQSGPELKKPGETVKISCKASGYTFTNYGMNWVKQVPGKGLKWMGWINTNTGEPTYAEEFKGRFAFSLETSARTAFLQINNLKNEDTATYFCTRFSHLRGPMDYWGQGASVTVSS VL: DAVMTQTPLSLPVSLGDQASISCRSSQSLVHSNGYTYLHWYLQKPGQSPKLLIYKVSNRFSGVPDRFSGSGSGTDFTLKISRLEAEDLGVYFCSQSTHVPPTFGGGTKLEIKR | 0.946 | 0.0879 | 11.5 | 28.8 | 3320 | 4.86 | 9.06 | 2.92 | 2.03 | 1310 | – | – | – | – | – | – | – | – | – | –
4 | hz3F10-3.2 (antibody, human IgG4 S228P, kappa, V domains shown, humanized 3F10, full-length heavy and light chains) VH: QVQLVQSGAEVKKPGSSVKVSCKASGYTFSRYWIEWVRQAPGQGLEWMGEFIPGSDTTNYAQKFQGRVTITAEISTNTAYMELSSLRSEDTAVYYCARGGLRRMDYWGQGTLVTVSS VL: DIQMTQSPSSLSASVGDRVTITCRASSSVSSTYLHWYQQKPGKAPKLLIYTTSTLASGVPSRFSGSGSGTSYTLTISSLQPEDFATYYCQQFSDSTWTFGQGTKLEIKR | – | – | – | – | – | – | – | – | – | – | 5100 | 0.166 | 1.2 | 47 | 37.1 | 45300 | 3.3 | 1.74 | 1.15 | 1.47
5 | hz3F10-4.1 (antibody, human IgG4 S228P, kappa, V domains shown, humanized 3F10, full-length heavy and light chains) VH: QVQLVQSGAEVKKPGSSVKVSCKASGYTFSRYWIEWVRQAPGQGLEWMGEFIPGSDTTNYAQKFQGRVTITADISTSTAYMELSSLRSEDTAVYYCARGGLRRMDYWGQGTLVTVSS VL: DIQMTQSPSSLSASVGDRVTITCRASSSVSSTYLHWYQQKPGKAPKLLIYTTSTLASGVPSRFSGSGSGTSYTLTISSLQPEDFATYYCQQFSESTWTFGQGTKLEIKR | – | – | – | – | – | – | – | – | – | – | 5980 | 0.115 | 1.16 | 50.3 | 58.3 | 41900 | 3.3 | 1.95 | 1.42 | 1.62
6 | Xi2B2 (antibody, human IgG4 S228P, kappa, V domains shown, mouse variable regions on human IgG4 (EU S228P) and human kappa constant regions; also called chimeric 2B2 antibody) VH: EVMLVESGGGLVQPGGSLKLSCAASGFTFSNYYMSWVRQTPEKRLEWVAYISSGGGSTYYPDSVKGRFTISRDNAKNTLYLQMSSLKSEDTAMYYCAWFAYWGQGTLVTVSA VL: not shown | – | 0.349 | 7.3 | 4.1 | 608 | – | 7.48 | 1.2 | 30.8 | 656 | – | – | – | – | – | – | – | – | – | –

Second part, the binder after the results:

Row | IC50 [1] [mg/L] | EC50 [2] [mg/L] | rate of phagocytosis, antibody 1 µg/mL (CD47 on HL60 cells [3]) [%] | rate of phagocytosis, antibody 10 µg/mL (CD47 on HL60 cells [3]) [%] | MFI [4] [MFI] | IC50 (CD47 on Jurkat cells) [mg/L] | Kd [5] [nM] | Kd [6] [nM] | EC50 [7] [mg/L] | MFI [8] [MFI] | MFI [9] [MFI] | EC50 [10] [mg/L] | EC50 [11] [mg/L] | rate of phagocytosis, antibody 1 µg/mL (CD47 on HL60 cells [12]) [%] | rate of phagocytosis, antibody 10 µg/mL (CD47 on HL60 cells [12]) [%] | MFI [13] [MFI] | red cell agglutination, lowest concentration causing it [14] [µg/mL] | IC50 [15] [mg/L] | Kd [16] [nM] | Kd [17] [nM] | Binder
7 | – | – | – | – | – | – | – | – | – | – | 894 | 0.138 | 18.8 | 3.03 | 4.33 | 4880 | 3.3 | 2.32 | 15.3 | 2.73 | hz16E5-1.3 (antibody, human IgG4 S228P, kappa, humanized 16E5, full-length heavy and light chains) heavy: not shown light: DIQMTQSPSSLSASVGDRVTITCRSSQSLVHSNGYTYLHWYQQKPGKAPKLLIYKVSNRFSGVPSRFSGSGSGTDFTLTISSLQPEDFATYYCSQSTHVPPTFGQGTKLEIKRTVAAPSVFIFPPSDEQLKSGTASVVCLLNNFYPREAKVQWKVDNALQSGNSQESVTEQDSKDSTYSLSSTLTLSKADYEKHKVYACEVTHQGLSSPVTKSFNRGEC
8 | – | – | – | – | – | – | – | – | – | – | 848 | 0.241 | 40.5 | 11.6 | 4.7 | 3870 | 3.3 | 2 | 7.13 | 1.87 | hz16E5-3.3 (antibody, human IgG4 S228P, kappa, humanized 16E5, full-length heavy and light chains) heavy: not shown light: DAQMTQSPSSLSASVGDRVTITCRSSQSLVHSNGYTYLHWYQQKPGKAPKLLIYKVSNRFSGVPSRFSGSGSGTDFTLTISSLQPEDFATYYCSQSTHVPPTFGQGTKLEIKRTVAAPSVFIFPPSDEQLKSGTASVVCLLNNFYPREAKVQWKVDNALQSGNSQESVTEQDSKDSTYSLSSTLTLSKADYEKHKVYACEVTHQGLSSPVTKSFNRGEC
9 | – | – | – | – | – | – | – | – | – | – | 945 | 0.14 | 5.88 | 6.37 | 24.2 | 5140 | 3.3 | 15.2 | 6.28 | 3.28 | hz16E5-3.1 (antibody, human IgG4 S228P, kappa, humanized 16E5, full-length heavy and light chains) heavy: not shown light: DAQMTQSPSSLSASVGDRVTITCRSSQSLVHSNGYTYLHWYQQKPGKAPKLLIYKVSNRFSGVPSRFSGSGSGTDFTLTISSLQPEDFATYYCSQSTHVPPTFGQGTKLEIKRTVAAPSVFIFPPSDEQLKSGTASVVCLLNNFYPREAKVQWKVDNALQSGNSQESVTEQDSKDSTYSLSSTLTLSKADYEKHKVYACEVTHQGLSSPVTKSFNRGEC
10 | – | – | – | – | – | – | – | – | – | – | 4810 | 0.181 | 1.26 | 46.2 | 31.7 | 45600 | 3.3 | 1.74 | 1.34 | 1.86 | hz3F10-4.2 (antibody, human IgG4 S228P, kappa, V domains shown, humanized 3F10, full-length heavy and light chains) VH: QVQLVQSGAEVKKPGSSVKVSCKASGYTFSRYWIEWVRQAPGQGLEWMGEFIPGSDTTNYAQKFQGRVTITAEISTNTAYMELSSLRSEDTAVYYCARGGLRRMDYWGQGTLVTVSS VL: DIQMTQSPSSLSASVGDRVTITCRASSSVSSTYLHWYQQKPGKAPKLLIYTTSTLASGVPSRFSGSGSGTSYTLTISSLQPEDFATYYCQQFSESTWTFGQGTKLEIKR
